In patent publication US6120991:

What was measured:
[1] = biological target: integrin α3 β1 (human) (UniProt P26006)
[2] = biological target: integrin α6 β4 (human) (UniProt P23229)

epiligrin-ECM^t (epiligrin left on the substratum after HFK were detached from their ECM with trypsin) (ligand)
% adherent HFF control cells on epiligrin-ECM^t at 37° C. (time course) (% adherent cells) [1]: 57 | % adherent 51Cr-labeled HFK cells on epiligrin-ECM^t at 4° C. (time course) (% adherent cells) [2]: 28
